# Laboratory results published in the RNAGym collection of RNA variant scans (doi:10.1101/gr.219683.116).
# B1: mRNA-splicing (parent)
# chain: AGUUGCUGCUGGGAGCUCCAGCACAGUGAAAUGGACAGAAGGGCAGAGCAA
# Variants of: B1
# Experiment: exon inclusion enrichment index; higher = more inclusion; WT1 exon 5 minigene, HEK293
row,Variant,exon inclusion enrichment index
1,G2U U3C G5A C6U U7A G8U C9A,0.557
2,G2A G5C C6A U7C G8A U10A,0.316
3,U3G U4A G5A C6U U7A G8U C9A,0.0777
4,U4A G5U U7C G8A U10C,2.36
5,G2A U3C C6A U7A C9A U10A,0.648
6,U4C G5U C6A U7C G8A U10A,0.501
7,G2A U3C G5A C6G U7G C9A,0.0183
8,U3A G5C C6G U7C U10C,4.21
9,G2U U3C C6A U7C C9A U10C,4.67
10,G2C G5C C6A U7C G8A U10A,0.0904
11,U3C U4A G5A C6U U7A G8U C9A,0.17
12,U3C U4A G5U G8U C9U,0.356
13,U4A C6U U7A G8U C9A,0.00525
14,U3C U4C G5C C6G U7C U10C,2.61
15,U3C G5C C6U G8C C9U U10C,0.338
16,G2U U3C C6A U7A C9A U10A,2.31
17,U3A U4C G5C C6G U7C U10C,3.45
18,U4C G5C G8U C9U,0.112
19,G2U C6A U7C C9A U10C,4.3
20,G2C U3A G5A C6U U7A G8U C9A,0.0584
21,U3A U4A G5C C6A U7C G8A U10A,0.0877
22,U3A U4A G5C C6U G8C C9U U10C,1.8
23,U3A U4A G5A C6G U7G C9A,0.0117
24,G2C U3A G5C C6U G8C C9U U10C,1.71

row,Variant,exon inclusion enrichment index
1,G2C U3C C6A U7A C9A U10A,0.779
2,U3G U4A G5C C6G U7C U10C,2.08
3,U4C G5U G8U C9U,0.371
4,G2U U3G C6A U7A C9A U10A,2.07
5,U3G U4G C6A U7C C9A U10C,1.23
6,U4A G5U C6G U7C U10C,1.96
7,G2U U3G G5C C6A U7C G8A U10A,0.503
8,G2A G5A C6G U7G C9A,0.0189
9,U3A U4G,0.0422
10,U3A U4A,0.0787
11,U3A U4C,0.355
12,U4G C6A U7C G8A U10A,0.348
13,G2A G5A C6U U7A G8U C9A,0.211
14,U3G U4A G5C C6A U7C G8A U10A,0.0657
15,U4C G5U C6G U7C U10C,4.01
16,U3G U4G G5U G8U C9U,0.0141
17,U3C G5A U7C G8A U10C,1.28
18,U4G C6A U7C C9A U10C,2.45
19,U3C U4C G5A C6U U7A G8U C9A,0.481
20,G2A G5C C6U G8C C9U U10C,2.9
21,U4A G5A C6U U7A G8U C9A,0.0542
22,U4A G5U C6A U7A C9A U10A,0.0651
23,U4C C6G U7G C9A,0.355
24,U4G G5A C6A U7C G8A U10A,0.403

row,Variant,exon inclusion enrichment index
1,G2C U3G G5C C6A U7C G8A U10A,0.148
2,U3G G5C C6A U7C G8A U10A,0.043
3,G2U U3G G5U G8U C9U,0.724
4,U3G U4G G5C C6A U7C G8A U10A,0.0147
5,G2U U3A,0.342
6,G2U U3G,0.359
7,G2U U3C,0.216
8,G2C U3C C6A U7C C9A U10C,2.79
9,U4A G5C C6G U7C U10C,2.75
10,U4C C6U G8C C9U U10C,2.37
11,U3A,0.364
12,U3C,0.011
13,U3G,0.0194
14,G2C G5A C6G U7G C9A,0.0065
15,U3G U4A G5A U7C G8A U10C,2.25
16,G2C U3G G5A U7C G8A U10C,2.64
17,U4C G5C,0.153
18,U4C G5A,0.0447
19,U4C G5U,0.105
20,U3C U4A G5A U7C G8A U10C,2.12
21,U4G G5A C6A U7C C9A U10C,3.42
22,G2C G5C C6G U7C U10C,2.87
23,U4C G5U C6A U7C C9A U10C,4.16
24,G2C G5A U7C G8A U10C,2

row,Variant,exon inclusion enrichment index
1,U3C U4A G5A C6G U7G C9A,0.0853
2,U4C G5C C6U G8C C9U U10C,2.17
3,U4A G5A C6A U7A C9A U10A,0.0853
4,G2C U3G G5A C6G U7G C9A,0.00533
5,U4A C6G U7G C9A,0.00639
6,G2U C6A U7A C9A U10A,1.36
7,G2A U3G G5C C6A U7C G8A U10A,0.0866
8,G2C U3A G5A C6G U7G C9A,0.0159
9,G2A U3G G5A U7C G8A U10C,1.76
10,U3C C6A U7C C9A U10C,3.44
11,U3A U4C C6A U7A C9A U10A,1.27
12,G2A C6A U7C C9A U10C,4.19
13,U3A G5C C6A U7C G8A U10A,0.475
14,U3G U4C G5A U7C G8A U10C,2.37
15,G2U U3C G5A U7C G8A U10C,4.11
16,G2A U3C G5C C6G U7C U10C,3.58
17,U3G G5U G8U C9U,0.0452
18,G2U G5C C6G U7C U10C,4.96
19,U3A U4A G5A U7C G8A U10C,2.15
20,G2U U3G G5A C6U U7A G8U C9A,0.348
21,G2U U3A G5C C6G U7C U10C,5.21
22,U4A G5A G8U C9U,0.144
23,U3C U4C C6A U7A C9A U10A,1.44
24,U4C G5C C6A U7C C9A U10C,3.54

row,Variant,exon inclusion enrichment index
1,U3C U4C G5A U7C G8A U10C,2.69
2,U3G U4A,0.0184
3,U3G U4G,0.00805
4,U3G U4C,0.16
5,U4A G5U G8U C9U,0.252
6,U4A G5A C6U G8C C9U U10C,0.574
7,G2U U3G G5A U7C G8A U10C,4.12
8,G2A U3C G5A U7C G8A U10C,2.1
9,U4A G5U C6A U7C C9A U10C,2.45
10,U4A C6U G8C C9U U10C,0.0827
11,U4A C6A U7C G8A U10A,0.0102
12,U3A U4G C6A U7A C9A U10A,0.245
13,U4C G5A G8U C9U,0.77
14,G2A U3G G5A C6U U7A G8U C9A,0.0498
15,G2A U3G G5C C6G U7C U10C,2.14
16,U3C C6A U7A C9A U10A,1.1
17,U4C C6A U7C G8A U10A,1.12
18,U4C C6A U7A C9A U10A,1.51
19,U3G G5C C6G U7C U10C,1.32
20,G2C U3G G5C C6U G8C C9U U10C,1.98
21,G2U U3A G5A C6G U7G C9A,0.0451
22,G2U U3G G5C C6U G8C C9U U10C,3.99
23,U3C U4G G5C C6A U7C G8A U10A,0.239
24,U3G U4G G5C C6U G8C C9U U10C,0.152

row,Variant,exon inclusion enrichment index
1,G2A G5C C6G U7C U10C,3.98
2,U3G U4G G5A U7C G8A U10C,1.93
3,G2C U3G G5U G8U C9U,0.38
4,U3G U4A C6A U7C C9A U10C,1.52
5,U3A U4A C6A U7A C9A U10A,0.441
6,U4C G5A C6A U7C G8A U10A,0.437
7,U4C G5A C6U G8C C9U U10C,1.56
8,U3A G5C C6U G8C C9U U10C,2.74
9,U3G U4A G5C C6U G8C C9U U10C,0.91
10,U4G C6A U7A C9A U10A,0.488
11,G2C U3A G5C C6G U7C U10C,3.34
12,U3G U4G G5A C6G U7G C9A,0.00966
13,G2U U3C G5C C6U G8C C9U U10C,3.63
14,U4G C6U G8C C9U U10C,0.778
15,U3G U4C G5C C6G U7C U10C,2.03
16,U3A U4C G5C C6U G8C C9U U10C,2.23
17,U3A G5A C6U U7A G8U C9A,0.265
18,U3C U4A G5C C6A U7C G8A U10A,0.0745
19,U4A G5C C6U U7A G8U C9A,0.177
20,U3G U4C G5A C6G U7G C9A,0.0394
21,U3A C6A U7A C9A U10A,0.664
22,U3C U4C C6A U7C C9A U10C,4.17
23,G2U U3A G5U G8U C9U,0.51
24,U4A G5A U7C G8A U10C,2

row,Variant,exon inclusion enrichment index
1,U4C G5U C6G U7G C9A,0.461
2,U3A G5U G8U C9U,0.513
3,U4A G5A C6G U7G C9A,0.0163
4,G2U U3G G5C C6G U7C U10C,5.1
5,U4A G5C C6A U7C C9A U10C,2.5
6,G2C U3A G5U G8U C9U,0.19
7,G2U G5C C6A U7C G8A U10A,0.329
8,U4G G5A C6G U7G C9A,0.00812
9,G2C U3A C6A U7C C9A U10C,2.73
10,U3C G5A C6G U7G C9A,0.00112
11,U3A U4C G5U G8U C9U,0.407
12,U3A C6A U7C C9A U10C,3.37
13,U4C G5U C6U G8C C9U U10C,1.08
14,U4A C6A U7A C9A U10A,0.122
15,G2A U3A C6A U7C C9A U10C,2.68
16,U3C U4G G5C C6U G8C C9U U10C,1.28
17,U3G U4C C6A U7A C9A U10A,1.04
18,U3G G5A C6U U7A G8U C9A,0.0113
19,G2C U3G G5C C6G U7C U10C,2.57
20,U4C G5C C6A U7A C9A U10A,1.37
21,U3G U4A G5A C6G U7G C9A,0.0126
22,U3C U4C G5C C6A U7C G8A U10A,0.144
23,U3A U4A G5C C6G U7C U10C,3.05
